Reference: patent US11827701B2, “IL-6 binding molecules” (argenx BV, priority 2012, dated 2023)

Tests used:
[1] = system: induced psoriatic lesions; test: Humanized mouse psoriasis xenograft model (epidermal ridge thickness); format: in vivo; conditions: mean±s.e.m.; BNX mice
Experimental: A mouse xenograft model was employed to evaluate the prophylactic efficacy of clone 68F2 on the development of induced psoriatic lesions. Specifically, BNX mice were transplanted with 5 mm diameter full-thickness skin biopsies from non-involved skin from psoriasis patients (1 per mouse). After 3 weeks, the transplants were injected with 0.5×10^6 activated PBMCs. Treatment of mice with clone 68F2, anti-TNF antibody (Remicade), or betamethasone dipropionate (positive control) was begun 1 day before the activated cells were injected into the transplants.
Treatment efficacy was determined by epidermal ridge thickness, as measured by light microscopy. Significance between groups was analyzed statistically using analysis of variance (ANOVA) followed by post-hoc Least Square Difference (LSD) tests to establish statistical significance differences between treatment groups. A value of p<0.05 denoted a significant difference between groups.

[2] = target: T1, bacterially produced human IL-6 (Homo sapiens, UniProt P05231); test: Surface plasmon resonance (Biacore), bacterially produced human IL-6 coated on CM5 chip; format: binding; conditions: for ka / kd: Bact, purified 24D10 chain-shuffled Fabs; for Bact (off-rate): periplasmic fractions, 24D10 chain-shuffled Fabs
T1 construct: His

[3] = target: T2, eukaryotically produced human IL-6 (Homo sapiens, UniProt P05231); test: Surface plasmon resonance (Biacore), eukaryotically produced human IL-6 coated on CM5 chip; format: binding; conditions: for ka / kd: Euk IL-6, purified 24D10 chain-shuffled Fabs; for RANKED euk (off-rate) / Average binding: periplasmic fractions; for RANKED euk (off-rate): 24D10 chain-shuffled Fabs; for Average binding: average over the IL-6 forms
T2 construct: purchased Humanzyme HZ-1044; host or cells: Human Embryonic kidney cells

cynomolgus monkey IL-6 [4] = target: T3, cynomolgus monkey IL-6 (Macaca fascicularis, UniProt P79341); test: Surface plasmon resonance (Biacore), cynomolgus monkey IL-6; format: binding; conditions: periplasmic fractions, 24D10 chain-shuffled Fabs
T3 construct: His

IL-6 = test: Serum amyloid A (SAA) mouse model, induction by injected IL-6; format: in vivo; parameters: SAA, Mean / SAA, Mouse1 / SAA, Mouse2 / SAA, Mouse3 / SAA, Mouse4 / SAA, Mouse5 / SAA, Mouse6: unit not given here; conditions: for SAA, Mouse1 / SAA, Mouse2 / SAA, Mouse3 / SAA, Mouse4 / SAA, Mouse5 / SAA, Mouse6 / SAA, Mean: 0.1 μg IL-6; for SAA, Mean: mean of 6 mice; for in vivo efficacy (block of SAA induction): Balb/c mice, i.v., 0.1 ug IL-6
Experimental: The in vivo efficacy of clones 68F2 and 61H7 was further investigated by measuring the ability of these antibodies to block serum amyloid A (SAA) induction in response to injected IL-6. General methods for performing this assay are set forth in WO2006/119115A2, which is hereby incorporated by reference in its entirety. […] Four hours after administration of the antibody, the mice were injected with 0.1 ug of IL-6. After a further 16 hours, blood was taken from the mice and the concentration of Serum Amyloid A was determined by ELISA. The dose responses are also graphically depicted in FIG. 13.

human IL-6 = target: T4, human IL-6 (Homo sapiens, UniProt P05231); test: IL-6 neutralizing bioassay, B9 cell proliferation ([3H]thymidine); format: cell-based; conditions: B9 cells; relative to 68F2 average IC50
T4 construct: host or cells: IL-6 added from outside to murine 7TD1 hybridoma cells
Experimental: The in vitro efficacy of clones 129D3, 68F2, 61H7, 133A9, 133H2, 133E5 and 132E7 were determined using a cell-based neutralizing bioassay using the B9 cell line, essentially as described in Helle et al. 1988, Eur. J. Immunol 18; 1535-1540. B9 cells are derived from the murine B cell hybridoma cell line B13.29, which require IL-6 for survival and proliferation and respond to very low concentrations of human IL-6. […] B9 cells were seeded in IL-6-free medium at 5000 cells/200 microl in flat-bottom wells in the presence of IL-6, with and without antibodies. Proliferation was measured by a [3H]thymidine pulse at 64-72 h.

RXF393 cells = test: Renal cell cancer mouse xenograft model; format: in vivo
Experimental: The in vivo efficacy of clones 68F2 was investigated in a renal cell cancer mouse xenograft model. […] Briefly, RXF393 cells (2×10^6) were injected subcutaneously at both lateral sides of a nude mouse. Tumors were allowed to grow to a volume between of 50 en 300 mm^3, prior to antibody administration. 90% of the injected mice developed a tumor. 40 mice were split into 5 groups of 8 mice. Each group was received intraperatoneal injection of either PBS (control) or a specific dose of clone 68F2 (1, 3, 10, or 30 mg/kg). Tumor size and survival was monitored twice per week.

cynomolgus monkey IL-6 [5] = target: T3, cynomolgus monkey IL-6; test: Surface plasmon resonance (Biacore), cynomolgus monkey IL-6; format: binding; conditions: purified chain-shuffled Fabs
Experimental: VL chain shuffling was used to improve the affinity of the Fabs 17F10, 18C7, 18C9, 18C11, 20A4, 29B11, 16D2 and 28A6. In this method, the heavy chain of these clones (as a VHCH1 fragment) was reintroduced into the primary phagemid-light chain library (see Example 1). Affinity selections were performed to select for chain shuffled Fabs with an improved affinity for IL-6. The binding kinetics of chain shuffled Fabs were evaluated by surface plasmon resonance (Biacore) using both bacterially and eukaryotically produced human IL-6, and cynomolgus monkey IL-6 (Tables 5-7). The VH and VL amino acid sequences of exemplary IL-6-specific Fabs selected by the VL chain shuffling method are set forth in Table 14 below.

T3 sequence (P79341 28-212): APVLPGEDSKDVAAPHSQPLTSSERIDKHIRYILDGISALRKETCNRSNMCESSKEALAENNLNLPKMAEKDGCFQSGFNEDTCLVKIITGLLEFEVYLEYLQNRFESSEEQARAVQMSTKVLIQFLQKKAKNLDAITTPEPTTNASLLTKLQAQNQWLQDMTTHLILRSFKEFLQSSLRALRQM
T2 sequence (P05231 30-212): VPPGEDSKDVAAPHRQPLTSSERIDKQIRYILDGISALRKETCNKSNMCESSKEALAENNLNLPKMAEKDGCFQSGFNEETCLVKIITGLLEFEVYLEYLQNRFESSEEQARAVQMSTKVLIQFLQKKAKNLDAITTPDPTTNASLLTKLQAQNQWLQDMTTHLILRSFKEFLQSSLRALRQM
T1 sequence (P05231 30-212): as above
T4 sequence (P05231 30-212): as above

CCC(=O)OCC(=O)[C@@]1(OC(=O)CC)[C@@H](C)C[C@H]2[C@@H]3CCC4=CC(=O)C=C[C@]4(C)[C@@]3(F)[C@@H](O)C[C@@]21C [betamethasone, betamethasone dipropionate]
epidermal ridge thickness [1]: 83 μm

Remicade: anti-TNF antibody
epidermal ridge thickness [1]: 125 μm

B1: 61H7: anti-IL-6 clone from VH chain shuffling of 24D10; Fab and IgG formats (antibody, V domains shown)
VH: EVQLVESGGGLVQPGGSLRLSCAASGFTFSSYRMYWVRQPPGKGLEWVSAISAGGGSTYYGDSVKGRFTISRDNAKNTVYLQMNSLKPEDTAVYYCANRAGWGMGDYWGQGTQVTVSS
VL: QTVVTQEPSLSVSPGGTVTLTCGLSSGSVTASNYPGWFQQTPGQAPRALIYSTNDRHSGVPSRFSGSISGNKAALTITGAQPEDEADYYCALDIGDITEFGGGTHLTVLG
ka [2]: 120000 M⁻¹ s⁻¹
kd [2]: 2e-06 s⁻¹
Bact (off-rate) [2]: 7.54E−05
ka [3]: 120000 M⁻¹ s⁻¹
kd [3]: 5.5e-05 s⁻¹
binding ([3]; periplasmic fractions ('pur' = purified Fab), IL-6 form not stated): 176
RANKED euk (off-rate) [3]: 9.32E−05
Average binding [3]: 635 RU
cyno (off-rate) (cynomolgus monkey IL-6 [4]): 9.45E−05
SAA, Mouse1 (IL-6; Ab dose/mouse 0.31 μg): 184
SAA, Mouse2 (IL-6; Ab dose/mouse 0.31 μg): 148
SAA, Mouse3 (IL-6; Ab dose/mouse 0.31 μg): 124
SAA, Mouse4 (IL-6; Ab dose/mouse 0.31 μg): 140
SAA, Mouse5 (IL-6; Ab dose/mouse 0.31 μg): 133
SAA, Mouse6 (IL-6; Ab dose/mouse 0.31 μg): 76
SAA, Mean (IL-6; Ab dose/mouse 0.31 μg): 134.2
SAA, Mouse1 (IL-6; Ab dose/mouse 1.25 μg): 66
SAA, Mouse2 (IL-6; Ab dose/mouse 1.25 μg): 29
SAA, Mouse3 (IL-6; Ab dose/mouse 1.25 μg): 33
SAA, Mouse4 (IL-6; Ab dose/mouse 1.25 μg): 30
SAA, Mouse5 (IL-6; Ab dose/mouse 1.25 μg): 24
SAA, Mouse6 (IL-6; Ab dose/mouse 1.25 μg): 35
SAA, Mean (IL-6; Ab dose/mouse 1.25 μg): 36.2
SAA, Mouse1 (IL-6; Ab dose/mouse 5 μg): 47
SAA, Mouse2 (IL-6; Ab dose/mouse 5 μg): 62
SAA, Mouse3 (IL-6; Ab dose/mouse 5 μg): 47
SAA, Mouse4 (IL-6; Ab dose/mouse 5 μg): 40
SAA, Mouse5 (IL-6; Ab dose/mouse 5 μg): 46
SAA, Mouse6 (IL-6; Ab dose/mouse 5 μg): 47
SAA, Mean (IL-6; Ab dose/mouse 5 μg): 48.2
in vivo efficacy (block of SAA induction) (IL-6): in vivo efficacy at least equal to the high potency benchmark controls GL18 and CNTO136

B2: 61H7 (A8.11) (antibody, V domains shown)
VH: EVQLVESGGGLVQPGGSLRLSCAASGFTFSSYRMYWVRQPPGKGLEWVSAISAGGGSTYYGDSVKGRFTISRDNAKNTVYLQMNSLKPEDTAVYYCANRAGWGMGDYWGQGTQVTVSS
VL: QTVVTQEPSLSVSPGGTVTLTCGLSSGSVTASNYPGWFQQTPGQAPRALIYSTNDRHSGVPSRFSGSISGNKAALTITGAQPEDEADYYCALDIGDITEFGGGTHLTVLG
Rel. Potency (human IL-6): 0.5

B3: 61H7 (12.8) (antibody, V domains shown)
VH: EVQLVESGGGLVQPGGSLRLSCAASGFTFSSYRMYWVRQPPGKGLEWVSAISAGGGSTYYGDSVKGRFTISRDNAKNTVYLQMNSLKPEDTAVYYCANRAGWGMGDYWGQGTQVTVSS
VL: QTVVTQEPSLSVSPGGTVTLTCGLSSGSVTASNYPGWFQQTPGQAPRALIYSTNDRHSGVPSRFSGSISGNKAALTITGAQPEDEADYYCALDIGDITEFGGGTHLTVLG
Rel. Potency (human IL-6): 0.4

B4: 61B7: 24D10 chain-shuffled Fab (antibody, V domains shown)
VH: ELQLVESGGGLVQPGGSLRLSCAASGFTFSSYAMSWVRQAPGKGPEWVSRISSGGGSAYYADSVKGRFTISRDNAKNTLYLQMNSLKPEDTAVYYCANRAGWGMGDYWGQGTQVTVSS
VL: QTVVTQEPSLSVSPGGTVTLTCGLSSGSVTASNYPGWFQQTPGQAPRALIYSTNDRHSGVPSRFSGSISGNKAALTITGAQPEDEADYYCALDIGDITEFGGGTHLTVLG
ka [2]: 350000 M⁻¹ s⁻¹
kd [2]: 5.7e-05 s⁻¹
Bact (off-rate) [2]: 9.07E−05
ka [3]: 330000 M⁻¹ s⁻¹
kd [3]: 6.6e-05 s⁻¹
RANKED euk (off-rate) [3]: 9.79E−05
Average binding [3]: 597 RU
cyno (off-rate) (cynomolgus monkey IL-6 [4]): 1.16E−04

B5: 68F2: anti-IL-6 clone from VL shuffling of 20A4; Fab and human IgG1 formats (antibody, listed as Lama glama, V domains shown)
VH: EVQLQESGPGLVKPSQTLSLTCTVSGGSITTRYYAWSWIRQPPGKGLEWMGVIDYDGDTYYSPSLKSRTSISWDTSKNQFSLQLSSVTPEDTAVYYCARDPDVVTGFHYDYWGQGTQVTVSS
VL: QSALTQPPLVSGTPGQTVTISCAGANNDIGTYAYVSWYQQLPGTAPKLLIYKVTTRASGIPSRFSGSKSGNTASLTISGLQSEDEADYYCASYRNFNNAVFGRGTHLTVLG
epidermal ridge thickness [1]: 125 μm
median survival time (RXF393 cells; 1 mg/kg): 21 days
median survival time (RXF393 cells; 3 mg/kg): 21 days
median survival time (RXF393 cells; 10 mg/kg): 27.5 days
median survival time (RXF393 cells; 30 mg/kg): 21 days
tumor outgrowth (RXF393 cells; 1, 3, 10, 30 mg/kg): effective at inhibiting tumor outgrowth in a dose-dependent manner with saturating effects at 10 mg/kg dose
Koff HIS-cyIL-6 (cynomolgus monkey IL-6 [5]): 0.00075 s⁻¹
SAA, Mouse1 (IL-6; Ab dose/mouse 0.31 μg): 83
SAA, Mouse2 (IL-6; Ab dose/mouse 0.31 μg): 129
SAA, Mouse3 (IL-6; Ab dose/mouse 0.31 μg): 116
SAA, Mouse4 (IL-6; Ab dose/mouse 0.31 μg): 132
SAA, Mouse5 (IL-6; Ab dose/mouse 0.31 μg): 145
SAA, Mouse6 (IL-6; Ab dose/mouse 0.31 μg): 136
SAA, Mean (IL-6; Ab dose/mouse 0.31 μg): 123.5
SAA, Mouse1 (IL-6; Ab dose/mouse 1.25 μg): 69
SAA, Mouse2 (IL-6; Ab dose/mouse 1.25 μg): 67
SAA, Mouse3 (IL-6; Ab dose/mouse 1.25 μg): 81
SAA, Mouse4 (IL-6; Ab dose/mouse 1.25 μg): 73
SAA, Mouse5 (IL-6; Ab dose/mouse 1.25 μg): 47
SAA, Mouse6 (IL-6; Ab dose/mouse 1.25 μg): 83
SAA, Mean (IL-6; Ab dose/mouse 1.25 μg): 70.0
SAA, Mouse1 (IL-6; Ab dose/mouse 5 μg): 76
SAA, Mouse2 (IL-6; Ab dose/mouse 5 μg): 38
SAA, Mouse3 (IL-6; Ab dose/mouse 5 μg): 46
SAA, Mouse4 (IL-6; Ab dose/mouse 5 μg): 63
SAA, Mouse5 (IL-6; Ab dose/mouse 5 μg): 43
SAA, Mouse6 (IL-6; Ab dose/mouse 5 μg): 40
SAA, Mean (IL-6; Ab dose/mouse 5 μg): 51.0
in vivo efficacy (block of SAA induction) (IL-6): in vivo efficacy at least equal to the high potency benchmark controls GL18 and CNTO136
